Source: patent publication US7897573B2, “Selective VPAC2 receptor peptide agonists” (priority 2005, dated 2011)
Where two headings read alike, the source gives them in different places. Where no end group is shown, it is not given here.

What was measured:
Human VPAC1 Receptor = molecular target: T1, Human VPAC1 Receptor (Homo sapiens, UniProt P32241); assay: Filter binding assay, 125I-labeled VIP, membranes of cells transiently transfected with human VPAC1; conditions: 125I-labeled VIP tracer
T1 construct: expressed in transfected cells
T1 sequence (P32241 31-457): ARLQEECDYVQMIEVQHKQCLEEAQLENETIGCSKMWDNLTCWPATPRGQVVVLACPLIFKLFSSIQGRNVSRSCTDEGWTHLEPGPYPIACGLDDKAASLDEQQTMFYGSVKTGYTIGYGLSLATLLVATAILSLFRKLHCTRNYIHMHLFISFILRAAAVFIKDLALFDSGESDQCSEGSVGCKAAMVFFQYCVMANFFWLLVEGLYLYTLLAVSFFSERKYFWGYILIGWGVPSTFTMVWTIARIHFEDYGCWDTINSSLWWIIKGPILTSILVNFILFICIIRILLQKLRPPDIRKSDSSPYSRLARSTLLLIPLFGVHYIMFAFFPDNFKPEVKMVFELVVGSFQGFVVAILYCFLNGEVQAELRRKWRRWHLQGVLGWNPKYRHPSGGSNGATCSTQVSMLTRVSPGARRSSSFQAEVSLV
Method: (§1) For this assay, the solutions and equipment include:
(§2) Presoak solution: 0.5% Polyethyleneamine in Aqua dest
(§3) Buffer for flushing filter plates: 25 mM HEPES pH 7.4
(§4) Blocking buffer: 25 mM HEPES pH 7.4; 0.2% protease free BSA
(§5) Assay buffer: 25 mM HEPES pH 7.4; 0.5% protease free BSA
(§6) Dilution and assay plate: PS-Microplate, U form
(§7) Filtration Plate Multiscreen FB Opaque Plate; […] Type B Glasfiber filter
(§8) In order to prepare the filter plates, the presoak solution is aspirated by vacuum filtration. The plates are flushed twice with 200 μL flush buffer. 200 μL blocking buffer is added to the filter plate. The filter plate is then incubated with 200 μL presoak solution for 1 hour at room temperature.
(§9) The assay plate is filled with 25 μL assay buffer, 25 μL membranes (2.5 μg) suspended in assay buffer, 25 μL agonist in assay buffer, and 25 μL tracer (about 40000 cpm) in assay buffer. The filled plate is incubated for 1 hour with shaking.
(§10) The transfer from assay plate to filter plate is conducted. The blocking buffer is aspirated by vacuum filtration and washed two times with flush buffer. 90 μL is transferred from the assay plate to the filter plate. The 90 μL transferred from assay plate is aspirated and washed three times with 200 μL flush buffer. The plastic support is removed. It is dried for 1 hour at 60° C. 30 μL Microscint is added. The count is performed.

Human PAC1 Receptor = molecular target: T2, Human PAC1 Receptor (Homo sapiens, UniProt P41586); assay: Filter binding assay, 125I-labeled PACAP-27, membranes of cells transiently transfected with human PAC1
T2 construct: expressed in transfected cells
T2 sequence (P41586 21-468): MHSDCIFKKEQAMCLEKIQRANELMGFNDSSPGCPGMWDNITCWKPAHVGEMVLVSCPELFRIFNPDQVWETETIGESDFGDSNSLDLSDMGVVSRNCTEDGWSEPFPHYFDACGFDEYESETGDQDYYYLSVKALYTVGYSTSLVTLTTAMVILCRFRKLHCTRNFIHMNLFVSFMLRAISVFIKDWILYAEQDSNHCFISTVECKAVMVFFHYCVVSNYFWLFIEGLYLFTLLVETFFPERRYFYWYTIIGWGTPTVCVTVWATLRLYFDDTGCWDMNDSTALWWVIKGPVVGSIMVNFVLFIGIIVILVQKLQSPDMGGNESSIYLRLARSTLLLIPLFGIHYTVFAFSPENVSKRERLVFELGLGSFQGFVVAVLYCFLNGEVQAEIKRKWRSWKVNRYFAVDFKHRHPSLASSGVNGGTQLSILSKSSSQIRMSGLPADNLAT
Method: as §1, §2, §3, §4, §5, §6, §7, §8, §9, §10

[1] = Pharmacokinetic profiles of PEGylated peptides in Fisher 344 rats; format: in vivo, rat; conditions: 100 μg agonist/kg, plasma RIA, mean N = 3
Method: Pharmacokinetic profiles of PEGylated peptides. Healthy Fisher 344 rats (3 animals per group) were injected with 100 μg agonist/kg (agonist amount based on peptide content and dissolved in PBS buffer). Blood samples were drawn 3, 12, 24, 48, 72, 96 and 168 hour post dosing and the peptide content in plasma was analysed by a radio-immunoassay (RIA) directed against the N-terminus of the peptide. PK parameters were then calculated using a model-independent method (WinNonlin Pro, Pharsight Corp., Mountain View, Calif., USA).

[2] = Rat serum stability study (DiscoveRx cAMP read-out on CHO-VPAC2 cells); conditions: 24 h in rat serum at 37° C.; EC50, 4° C./EC50, 37° C.; values >100% may represent release of intact peptide from the PEG conjugate
Method: In order to determine the stability of VPAC2 receptor peptide agonists in rat serum, CHO-VPAC2 cells clone #6 (96 well plates/50,000 cells/well and 1 day culture), PBS 1× (Gibco), the peptides for the analysis in a 100 μM stock solution, rat serum from a sacrificed normal Wistar rat, aprotinin, and a DiscoveRx assay kit are obtained. The rat serum is stored at 4° C. until use and is used within two weeks.
The aliquot is stored with aprotinin at 4° C. The aliquot is stored without aprotinin at 37° C. The aliquots are incubated for 24 or 72 hours.
On Day 1, after incubation of the aliquots prepared on day 0 for 24 or 72 hours, an incubation buffer containing PBS+1.3 mM CaCl2, 1.2 mM MgCl2, 2 mM glucose, and 0.25 mM IBMX is prepared. A plate with 11 serial 5× dilutions of peptide for the 4° C. and 37° C. aliquot is prepared for each peptide studied. […] The plate(s) are washed with cells twice in incubation buffer. The plates are allowed to hold 50 μL incubation media per well for 15 minutes. 50 μL solution per well is transferred to the cells from the plate prepared with 11 serial 5× dilutions of peptide for the 4° C. and 37° C. aliquot for each peptide studied, using the maximal concentrations that are indicated by the primary screen, in duplicate. This step dilutes the peptide concentration by a factor of two. The cells are incubated at room temperature for 30 minutes. The supernatant is removed. 40 μL/well of the DiscoveRx antibody/extraction buffer is added. The cells are incubated on the shaker (300 rpm) for 1 hour. Normal procedure with the DiscoveRx kit is followed. cAMP standards are included in column 12. EC50 values are determined from the cAMP assay data.

Normal Wistar rats = assay: Intravenous glucose tolerance test (IVGTT); format: in vivo, rat; conditions: AUC insulin, 0-10 min after glucose, 24 h between glucose & compound, Wistar rats
Method: Intravenous glucose tolerance test (IVGTT): Normal Wistar rats are fasted overnight and are anesthetized prior to the experiment. A blood sampling catheter is inserted into the rats. The agonist is given subcutaneously, normally 24 h prior to the glucose challenge. Blood samples are taken from the carotid artery. A blood sample is drawn immediately prior to the injection of glucose along with the agonist. After the initial blood sample, glucose mixed is injected intravenously (i.v.). A glucose challenge of 0.5 g/kg body weight is given, injecting a total of 1.5 mL vehicle with glucose and agonist per kg body weight. The peptide concentrations are varied to produce the desired dose in μg/kg. Blood samples are drawn at 2, 4, 6 and 10 minutes after giving glucose. The control group of animals receives the same vehicle along with glucose, but with no agonist added. In some instances, 20 and 30 minute post-glucose blood samples were drawn. Aprotinin is added to the blood sample (250-500 kIU/ml blood). The plasma is then analyzed for glucose and insulin using standard methodologies.
The assay uses a formulated and calibrated peptide stock in PBS. Normally, this stock is a prediluted 100 μM stock. However, a more concentrated stock with approximately 1 mg agonist per mL is used. The specific concentration is always known. Variability in the maximal response is mostly due to variability in the vehicle dose.

Compound	IC50 (Human VPAC1 Receptor) [nM]	IC50 (Human PAC1 Receptor; 125I-labeled PACAP-27 tracer) [nM]	AUC0-last [1] [ng·h/mL]	Cl/F [1] [mL/min/kg]	Cmax [1] [ng/mL]	Tmax [1] [h]	T½ [1] [h]	24 h stab (%) [2] [%]	IC50 (Human PAC1 Receptor) [nM]	% increase AUC: Dose = 0.1 mg/kg (Normal Wistar rats) [%]	% increase AUC: Dose = 0.3 mg/kg (Normal Wistar rats; 0.3 mg/kg) [%]
C6-HSDAVFTEQY(OMe)TOrnLRAibQLAAbuAibOrnYLQSIOrnC(PEG20K)OrnGGPSSGAPPPC(PEG20K)-NH2 (HSDAVFTEQYTXLRXQLAXXXYLQSIXCXGGPSSGAPPPC; C6 acyl, two PEG20K, C-terminal amide; Synthetic sequence PEGylated VPAC2 receptor agonist) [Agonist P555]	> 25000	> 25000	4918	0.333	102	16	13	117	–	–	–
CC[C@H](C)[C@H](NC(=O)[C@H](CO)NC(=O)[C@H](CC(N)=O)NC(=O)[C@H](CC(C)C)NC(=O)[C@H](Cc1ccc(O)cc1)NC(=O)[C@H](CCCCN)NC(=O)[C@H](CCCCN)NC(=O)[C@@H](NC(=O)[C@H](C)NC(=O)[C@H](CCSC)NC(=O)[C@H](CCC(N)=O)NC(=O)[C@H](CCCCN)NC(=O)[C@H](CCCN=C(N)N)NC(=O)[C@H](CC(C)C)NC(=O)[C@H](CCCN=C(N)N)NC(=O)[C@@H](NC(=O)[C@H](Cc1ccc(O)cc1)NC(=O)[C@H](CC(N)=O)NC(=O)[C@H](CC(=O)O)NC(=O)[C@@H](NC(=O)[C@H](Cc1ccccc1)NC(=O)[C@@H](NC(=O)[C@H](C)NC(=O)[C@H](CC(=O)O)NC(=O)[C@H](CO)NC(=O)[C@@H](N)Cc1cnc[nH]1)C(C)C)[C@@H](C)O)[C@@H](C)O)C(C)C)C(=O)N[C@@H](CC(C)C)C(=O)N[C@@H](CC(N)=O)C(=O)O [VIP, reference compound]	–	–	–	–	–	–	–	0.2	> 1000	–	–
C6-HSDAVFTEQY(OMe)TOrnLRAibQVAAAibOrnYLQSIOrnOrnC(PEG20K)GGPSSGAPPPC(PEG20K)NH2 (HSDAVFTEQYTXLRXQVAAXXYLQSIXXCGGPSSGAPPPC; C6 acyl, two PEG20K, C-terminal amide; Synthetic sequence PEGylated VPAC2 receptor agonist) [Agonist P562]	> 25000	> 25000	5456	0.317	120	24	25	213	–	–	–
C6-HSDAVFTEQY(OMe)TOrnLRAibQLAAbuAibOrnyLQAibIOrnOrnGGPSSGAPPPC(PEG30K)C(PEG30K)-NH2 (HSDAVFTEQYTXLRXQLAXXXYLQXIXXGGPSSGAPPPCC; not fully specified (some residues, N-terminus, C-terminus); printed as C6-HSDAVFTEQY(OMe)TOrnLRAibQLAAbuAibOrnyLQAibIOrnOrnGGPSSGAPPPC(PEG30K)C(PEG30K)-NH2; cysteine pairing not given here) [Agonist P570]	> 25000	> 25000	3891	0.417	71	20	25	–	–	36	–
C6-HSDAVFTEQY(OMe)TOrnLRAibQC(PEG40K)AAbuAibOrnYLQAibIOrnOrnGGPSSGAPPPS-NH2 (HSDAVFTEQYTXLRXQCAXXXYLQXIXXGGPSSGAPPPS; C6 acyl, PEG40K on Cys, C-terminal amide; Synthetic sequence PEGylated VPAC2 receptor agonist) [Agonist P545]	> 25000	> 25000	12737	0.12	139	72	43	–	–	–	–
C6-HSDAVFTEQY(OMe)TOrnLRAibQLAAbuAibOrnY(OMe)LQAibIOrnOrnGGPSSGAPPPC(PEG20K)C(PEG20K)-NH2 (HSDAVFTEQYTXLRXQLAXXXYLQXIXXGGPSSGAPPPCC; C6 acyl, non-natural residues, two PEG20K, C-terminal amide; Synthetic sequence PEGylated VPAC2 receptor agonist) [Agonist P574]	> 25000	> 25000	3408	0.467	70	20	18	288	–	–	–
C6-HSDAVFTEQY(OMe)TOrnLRAibQVAAbuAibOrnYLQAibIOrnOrnGGPSSGAPPPC(PEG40K)-NH2 (HSDAVFTEQYTXLRXQVAXXXYLQXIXXGGPSSGAPPPC; C6 acyl, PEG40K on Cys, C-terminal amide; Synthetic sequence PEGylated VPAC2 receptor agonist) [Agonist P511]	> 25000	> 25000	3067	–	100	16	–	–	–	38	59
